In article PMC7921410, “Structure of mammalian Mediator complex reveals Tail module architecture and interaction with a conserved core” (Nature Communications, 2021):

Molecular target: T1, MED1 (mouse (Mus musculus; endogenous in CH12), UniProt Q925J9 1-1575)
T1 construct: MED1, Mus musculus, endogenous Middle module subunit of Mediator; only a partial model of the folded N-terminal portion was built; Partial model only; this part of the map is at about 6-8 Å; also called Mediator subunit MED1; source: endogenous, CH12 mouse B lymphoma nuclear extract; immunopurified as part of Mediator (FLAG M2 agarose, FLAG peptide elution)
T1 sequence (Q925J9 whole entry): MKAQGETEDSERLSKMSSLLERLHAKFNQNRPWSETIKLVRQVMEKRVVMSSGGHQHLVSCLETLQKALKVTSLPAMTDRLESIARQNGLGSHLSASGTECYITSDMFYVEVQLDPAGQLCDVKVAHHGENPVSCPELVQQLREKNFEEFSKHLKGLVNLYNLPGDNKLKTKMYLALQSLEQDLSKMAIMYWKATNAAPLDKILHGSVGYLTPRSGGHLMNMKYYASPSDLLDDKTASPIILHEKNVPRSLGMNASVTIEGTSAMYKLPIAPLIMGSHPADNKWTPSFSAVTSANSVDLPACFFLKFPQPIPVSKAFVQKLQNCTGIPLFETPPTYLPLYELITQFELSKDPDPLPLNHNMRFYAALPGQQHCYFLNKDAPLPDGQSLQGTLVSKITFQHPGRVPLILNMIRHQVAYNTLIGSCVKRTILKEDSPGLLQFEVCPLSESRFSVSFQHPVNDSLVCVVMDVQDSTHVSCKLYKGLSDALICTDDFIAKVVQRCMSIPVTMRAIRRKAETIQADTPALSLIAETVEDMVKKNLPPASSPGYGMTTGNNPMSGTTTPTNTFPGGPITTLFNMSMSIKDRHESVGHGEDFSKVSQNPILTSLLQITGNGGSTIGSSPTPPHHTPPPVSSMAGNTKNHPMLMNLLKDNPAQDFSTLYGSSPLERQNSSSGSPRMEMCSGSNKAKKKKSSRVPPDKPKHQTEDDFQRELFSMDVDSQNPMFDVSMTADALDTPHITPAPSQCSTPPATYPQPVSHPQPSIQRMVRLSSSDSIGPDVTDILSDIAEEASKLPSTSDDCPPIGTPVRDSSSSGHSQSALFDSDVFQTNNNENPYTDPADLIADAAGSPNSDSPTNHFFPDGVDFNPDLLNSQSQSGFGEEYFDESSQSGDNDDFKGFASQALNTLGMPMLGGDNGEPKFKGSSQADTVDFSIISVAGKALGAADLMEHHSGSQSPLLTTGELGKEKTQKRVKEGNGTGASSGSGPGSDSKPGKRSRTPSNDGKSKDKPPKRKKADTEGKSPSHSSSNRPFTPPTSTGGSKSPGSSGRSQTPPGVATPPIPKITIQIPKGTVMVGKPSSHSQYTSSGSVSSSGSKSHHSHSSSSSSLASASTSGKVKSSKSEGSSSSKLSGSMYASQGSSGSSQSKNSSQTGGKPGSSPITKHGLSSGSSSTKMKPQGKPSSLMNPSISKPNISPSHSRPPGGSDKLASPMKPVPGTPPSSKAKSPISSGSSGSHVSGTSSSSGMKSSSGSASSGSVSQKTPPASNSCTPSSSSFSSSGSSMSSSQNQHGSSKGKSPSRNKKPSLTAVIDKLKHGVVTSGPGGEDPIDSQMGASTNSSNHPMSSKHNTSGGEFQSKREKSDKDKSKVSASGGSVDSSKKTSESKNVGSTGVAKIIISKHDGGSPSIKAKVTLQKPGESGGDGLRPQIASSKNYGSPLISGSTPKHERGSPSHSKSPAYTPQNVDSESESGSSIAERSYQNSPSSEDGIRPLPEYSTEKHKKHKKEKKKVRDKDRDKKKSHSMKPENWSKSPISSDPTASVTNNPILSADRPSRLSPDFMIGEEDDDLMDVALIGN
Experiment: cryo-EM structure; endogenous mouse Mediator immunopurified from CH12 nuclear extract through 3×FLAG-MED19 or 3×FLAG-MED25; eluted in 50 mM HEPES pH 7.9, 100 mM KCl, 5% glycerol, 1 mM EDTA, 0.005% NP-40; map at 4.0 Å overall, focused refinement of the MED1 and knob/hook ends (6-10 Å)
Conditions: both partners purified

B1: MED4 (natural protein, mouse (Mus musculus; endogenous in CH12), UniProt Q9CQA5 1-270, looked up)
chain: MAASSSGEKEKERMGGVSGMAGLGSTRERLLSALEDLEVLSRELIEMLAISRNQKLLQLEEENQVLELLIHRDGDFQELMKLALNQGKVHHEMQALEKEVEKRDSDIQQLQKQLKEAEQILATAVYQAKEKLKSIEKARKGAISSEEIIKYAHRISASNAVCAPLTWVPGDPRRPYPTDLEMRSGLLGQMNNPSTSGVNGHLPGDALAAGRLPDVLAPQYPWQSNDMSVNMLPPNHSSDFLLEPPGHNKENEDDVEVMSTDSSSSSSDSD
notes: MED4, Mus musculus, endogenous Middle module subunit of Mediator; source: endogenous, CH12 mouse B lymphoma nuclear extract; immunopurified as part of Mediator (FLAG M2 agarose, FLAG peptide elution)
  binding result: binds
